# Values of other authors, collected in article PMC9190259.
# pKd: −log10 of the molar value.
# Biological target: TNFα (Homo sapiens) (UniProt P01375)
# Chain of UniProt P01375 (P01375 77-233): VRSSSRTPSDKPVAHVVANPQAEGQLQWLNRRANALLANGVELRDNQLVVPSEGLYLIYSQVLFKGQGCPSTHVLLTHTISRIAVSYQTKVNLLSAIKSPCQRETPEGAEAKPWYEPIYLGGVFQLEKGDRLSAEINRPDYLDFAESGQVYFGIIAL
substance,measurement,value
Certolizumab Fab,pKd,10.05
